In US20250084176A1 (F STAR BETA, published 2025):

How the values were obtained:
[1] = molecular target: T1, human CD137, full length, on cells (human, UniProt Q07011 24-255); test: flow cytometry on CD137int/low DO11.10 cells (ABC 143,065), anti-human IgG-PE detection, geometric mean PE
T1 construct: also called DO11.10.hCD137; HEK.FRT.luc.hCD137
Description: (§1) A range of DO11.10 cells expressing different levels of CD137 were produced as described in Example 3.5. To determine the relative expression of CD137 in each cell line, the antibody binding capacity (ABC) was determined according to manufacturer's protocol (Quantum™ Simply Cellular® #816 Bangs Labs).
(§2) All antibodies tested were diluted in FACS buffer in 120 μl. DO11.10 cells were then centrifuged, supernatant removed and cells resuspended in 100 μl of each antibody dilution and incubated at 4° C. for 45 min. Cells were washed twice by centrifugation with 150 μl FACS buffer, resuspended in 100 μl containing goat anti-human IgG (γ-chain specific) F (ab′) 2 fragment-R-Phycoerythrin antibody (Sigma, P8047) diluted 1:1000 in FACS buffer and incubated at 4° C. for 45 min. The cells were washed once with 150 μl FACS buffer and then with 150 μl DPBS, resuspended in 150 μl DPBS containing DAPI (Biotium, 40043) at 1:10.000 and read on the BDCantoll or iQue (Intellicyt). Data was analysed using FlowJo v10 to determine the signal geometric mean for PE for live cells in each well.

[2] = molecular target: T1, human CD137, full length, on cells; test: flow cytometry on CD137int DO11.10 cells (ABC 404,597), anti-human IgG-PE detection, geometric mean PE
Description: as §1, §2

[3] = molecular target: T1, human CD137, full length, on cells; test: cell-based or functional assay
[4] = molecular target: T1, human CD137, full length, on cells; test: cell-based or functional assay; remark: listed apart in the source
[5] = molecular target: T1, human CD137, full length, on cells; test: cell-based or functional assay; remark: listed apart in the source
[6] = molecular target: T1, human CD137, full length, on cells; test: flow cytometry on CD137low DO11.10 cells (ABC 14,208), anti-human IgG-PE detection, geometric mean PE
Description: as §1, §2

[7] = molecular target: mouse CD137, full length, on cells (mouse, UniProt P20334 24-256); test: cell-based or functional assay
hCD137-mFc-Avi [8] = molecular target: T2, hCD137-mFc-Avi (human; mouse, UniProt Q07011 24-186, one biotin on the Avi sequence of each monomer (BirA); unbiotinylated in the SPR of Example 5.6); test: SPR (Biacore T200), mAb2 captured by anti-human Fab, hCD137-mFc in solution, 1:1 Langmuir
T2 construct: Made in-house in HEK293-6E; also called human CD137-mFc-Avi; dimeric human CD137; not shown: mouse IgG2a Fc domain (mIgG2a Fc)
Description: For the hCD137-mFc-Avi antigen the following method was used: an anti-human Fab molecule was immobilised on a CM5 chip to a surface density of between 9,000 and 11,000 response units (RU). The antibodies were diluted to 4 μg/ml in HBS-EP buffer and captured by the anti-Fab molecule with a flow rate of […].
For mCD137-mFc-Avi binding kinetic determination, a different approach was used. […] The analysis of the data was done using the Biacore T200 evaluation software. Curves were subtracted against a blank flow cell and fitted using a 1:1 Langmuir binding model with mass transfer, setting RI to zero as constant and Rₘₐₓ to local.

mCD137-mFc-Avi = molecular target: T3, mCD137-mFc-Avi (mouse, UniProt P20334 24-187, one biotin on the Avi sequence of each monomer (BirA); unbiotinylated in the SPR of Example 5.6); test: SPR (Biacore), mAb2 captured by anti-human Fab, antigen in solution, 1:1 Langmuir
T3 construct: also called mouse CD137-mFc-Avi; dimeric mouse CD137; not shown: mouse IgG2a Fc domain (mIgG2a Fc)
T3 sequence: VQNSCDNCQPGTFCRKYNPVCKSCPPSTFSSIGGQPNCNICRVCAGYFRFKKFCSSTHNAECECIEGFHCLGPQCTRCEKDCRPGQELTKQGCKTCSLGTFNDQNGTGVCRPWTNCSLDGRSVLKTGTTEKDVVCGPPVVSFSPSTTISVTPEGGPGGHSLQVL
Description: (§3) An anti-human Fab capture antibody was immobilised on all four flow cells of a CM5 series S chip (GE Healthcare #BR-1005-30) to an average surface density of 6000 RU following the manufacturer's recommendations (GE Healthcare, human Fab capture Kit, #28958325). IEach mAb² was captured to approximately 150 RU by injecting a 3 μg/ml solution of mAb² diluted in HBS-EP+ buffer (GE Healthcare #BR1006-69) for 60 seconds at 30 μl/min. Then different concentrations of human, cyno or mouse CD137 antigen (unbiotinylated human, cyno or mouse CD137-mFc-Avi or human CD137-Avi-His) in HBS-EP+ buffer were flowed over the chip for 3 min at 60 μl/min and then allowed to dissociate for 10 minutes. After each antigen concentration the chip was regenerated by infecting 10 mM glycine pH 2.1 at a flow rate of 30 μl/min for 30 seconds. Buffer HBS-EP+ was injected before the highest concentration of antigen and after the lowest concentration of antigen for reference subtraction, and one of the concentrations at random was repeated twice. The binding kinetics were fit with a 1:1 Langmuir model to generate equilibrium binding constants (KD) for each sample. Data analysis was performed with BiaEvaluation software version 3.2.

cCD137-mFc-Avi = molecular target: T4, cCD137-mFc-Avi (cynomolgus; mouse, one biotin on the Avi sequence of each monomer (BirA); unbiotinylated in the SPR of Example 5.6); test: as above
T4 construct: also called cyno CD137-mFc-Avi; dimeric cynomolgus CD137; not shown: mouse IgG2a Fc domain (mIgG2a Fc)
T4 chain: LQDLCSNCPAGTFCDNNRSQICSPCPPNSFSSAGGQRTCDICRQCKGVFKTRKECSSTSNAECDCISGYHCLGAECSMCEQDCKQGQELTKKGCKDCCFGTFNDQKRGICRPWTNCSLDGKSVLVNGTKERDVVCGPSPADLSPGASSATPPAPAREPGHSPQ
Description: as §3

hCD137-mFc-Avi [9] = molecular target: T2, hCD137-mFc-Avi; test: as above
Description: as §3

hCD137-Avi-His = molecular target: T5, hCD137-Avi-His (human, UniProt Q07011 24-186, single biotin on the Avi sequence (BirA); unbiotinylated in the SPR of Example 5.6); test: as above
T5 construct: also called human CD137-Avi-His; monomeric human CD137
Description: as §3

human OX40 = molecular target: T6, human OX40 (human, UniProt P43489 29-216, limits assumed); test: SPR (Biacore T200), receptor amine-coupled to CM5 chip
T6 sequence (looked up): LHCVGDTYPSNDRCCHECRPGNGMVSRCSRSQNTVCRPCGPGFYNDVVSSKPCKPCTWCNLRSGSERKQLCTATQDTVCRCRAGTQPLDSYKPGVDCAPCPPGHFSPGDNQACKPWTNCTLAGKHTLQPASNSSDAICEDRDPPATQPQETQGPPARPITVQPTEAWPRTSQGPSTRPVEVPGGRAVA

human GITR = molecular target: T7, human GITR (human, UniProt Q9Y5U5 26-161, limits assumed); test: as above
T7 sequence (looked up): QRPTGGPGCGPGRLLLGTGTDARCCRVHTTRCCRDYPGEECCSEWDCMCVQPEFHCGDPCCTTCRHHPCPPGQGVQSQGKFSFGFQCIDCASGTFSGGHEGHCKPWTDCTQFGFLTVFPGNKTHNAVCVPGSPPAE

human CD40 = human CD40 (human, UniProt P25942 21-193); test: as above
[10] = molecular target: T1, human CD137, full length, on cells; test: flow cytometry on CD137high DO11.10 cells (ABC 1,206,283), anti-human IgG-PE detection, geometric mean PE
Description: as §1, §2

T2 sequence (Q07011 24-186): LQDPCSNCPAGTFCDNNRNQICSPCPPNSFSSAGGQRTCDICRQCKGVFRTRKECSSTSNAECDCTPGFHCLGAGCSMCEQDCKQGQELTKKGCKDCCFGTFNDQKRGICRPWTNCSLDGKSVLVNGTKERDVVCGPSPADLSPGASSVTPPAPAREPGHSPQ
T1 sequence (Q07011 24-255): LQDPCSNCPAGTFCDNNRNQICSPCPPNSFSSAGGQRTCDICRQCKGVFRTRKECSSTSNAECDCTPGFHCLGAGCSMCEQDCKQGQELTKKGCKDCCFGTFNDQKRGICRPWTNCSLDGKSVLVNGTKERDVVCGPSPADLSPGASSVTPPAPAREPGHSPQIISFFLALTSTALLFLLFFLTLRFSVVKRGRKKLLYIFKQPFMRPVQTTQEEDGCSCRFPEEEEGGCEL
T5 sequence (Q07011 24-186): as the sequence (Q07011 24-186) above
Sequence of human CD40 (P25942 21-193 limits assumed): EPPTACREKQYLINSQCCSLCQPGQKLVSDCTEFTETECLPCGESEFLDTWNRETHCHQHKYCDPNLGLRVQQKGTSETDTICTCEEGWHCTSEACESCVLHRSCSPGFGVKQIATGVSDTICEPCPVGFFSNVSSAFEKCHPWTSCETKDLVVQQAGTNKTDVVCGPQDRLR

B1: G1-AA/20H4.9 (antibody, V domains shown)
VH: QVQLQQWGAGLLKPSETLSLTCAVYGGSFSGYYWSWIRQSPEKGLEWIGEINHGGYVTYNPSLESRVTISVDTSKNQFSLKLSSVTAADTAVYYCARDYGPGNYDWYFDLWGRGTLVTVSS
VL: EIVLTQSPATLSLSPGERATLSCRASQSVSSYLAWYQQKPGQAPRLLIYDASNRATGIPARFSGSGSGTDFTLTISSLEPEDFAVYYCQQRSNWPPALTFGGGTKVEIKR
[1]
  EC50 (read off the curve): ~0.1 nM
[2]
  EC50 (read off the curve): ~0.1 nM
[3]
  hIL-2 release, primary human CD8+ T cells, 20H4.9 (row without XL): EC50: 0.89 nM
  hIL-2 release, primary human CD8+ T cells, 20H4.9 + XL (anti-hCH2): EC50: 0.5 nM
[4]
  IL-2 release, DO11.10.hCD137 T cell activation assay: EC50: 0.26 nM
[5]
  IL-2 release, human CD137 DO11.10 T cell activation assay, Protein L: +XL EC50: 0.82 nM
[6]
  EC50 (read off the curve): ~0.1 nM

B2: FS22-053-014/HelD1.3 (bispecific antibody, human IgG1, kappa)
heavy: QVQLQESGPGLVRPSQTLSLTCTVSGSTFSGYGVNWVRQPPGRGLEWIGMIWGDGNTDYNSALKSRVTMLVDTSKNQFSLRLSSVTAADTAVYYCARERDYRLDYWGQGSLVTVSSASTKGPSVFPLAPSSKSTSGGTAALGCLVKDYFPEPVTVSWNSGALTSGVHTFPAVLQSSGLYSLSSVVTVPSSSLGTQTYICNVNHKPSNTKVDKKVEPKSCDKTHTCPPCPAPELLGGPSVFLFPPKPKDTLMISRTPEVTCVVVDVSHEDPEVKFNWYVDGVEVHNAKTKPREEQYNSTYRVVSVLTVLHQDWLNGKEYKCKVSNKALPAPIEKTISKAKGQPREPQVYTLPPSRDELNPPYLFSNQVSLTCLVKGFYPSDIAVEWESNGQPENNYKTTPPVLDSDGSFFLYSKLTVYHWRWLDGNVFSCSVMHEALHNHYTQKSLSLSPG
light: DIQMTQSPASLSASVGETVTITCRASGNIHNYLAWYQQKQGKSPQLLVYNAKTLADGVPSRFSGSGSGTQYSLKINSLQPEDFGSYYCQHFWSTPRTFGGGTKLEIKRTVAAPSVFIFPPSDEQLKSGTASVVCLLNNFYPREAKVQWKVDNALQSGNSQESVTEQDSKDSTYSLSSTLTLSKADYEKHKVYACEVTHQGLSSPVTKSFNRGEC
notes: Mock mAb^2, IgG1 without LALA; also called FS22-053-14; FS22-053-014/HeID1.3
[7]
  IL-2 release, mouse CD137 DO11.10 T cell activation assay, Protein L: +XL EC50: 2.04 nM
  IL-2 release, mouse CD137 DO11.10 T cell activation assay, Protein L: +XL Emax: 28100 pg/mL
hCD137-mFc-Avi [8]
  Kd: 4.4 nM
  koff: 0.000366 s⁻¹
  kon: 83000 M⁻¹ s⁻¹
mCD137-mFc-Avi
  Kd: 24 nM
cCD137-mFc-Avi
  Kd: 0.9 nM
hCD137-mFc-Avi [9]
  Kd: 3.2 nM
hCD137-Avi-His
  Human monomeric CD137 KD fold difference relative to human dimeric KD: 100 fold
Human OX40
  binding result: no binding (tested: starting at 1 µM)
Human GITR
  binding result: no binding (tested: starting at 1 µM)
Human CD40
  binding result: no binding (tested: starting at 1 µM)
[5]
  IL-2 release, human CD137 DO11.10 T cell activation assay, Protein L: +XL EC50: 0.73 nM

B3: FS22-172-003-AA/HelD1.3 (bispecific antibody, human IgG1, kappa, L234A L235A)
heavy: QVQLQESGPGLVRPSQTLSLTCTVSGSTFSGYGVNWVRQPPGRGLEWIGMIWGDGNTDYNSALKSRVTMLVDTSKNQFSLRLSSVTAADTAVYYCARERDYRLDYWGQGSLVTVSSASTKGPSVFPLAPSSKSTSGGTAALGCLVKDYFPEPVTVSWNSGALTSGVHTFPAVLQSSGLYSLSSVVTVPSSSLGTQTYICNVNHKPSNTKVDKKVEPKSCDKTHTCPPCPAPEAAGGPSVFLFPPKPKDTLMISRTPEVTCVVVDVSHEDPEVKFNWYVDGVEVHNAKTKPREEQYNSTYRVVSVLTVLHQDWLNGKEYKCKVSNKALPAPIEKTISKAKGQPREPQVYTLPPSRDELPYIIPPYNQVSLTCLVKGFYPSDIAVEWESNGQPENNYKTTPPVLDSDGSFFLYSKLTVGADRWLEGNVFSCSVMHEALHNHYTQKSLSLSPG
light: DIQMTQSPASLSASVGETVTITCRASGNIHNYLAWYQQKQGKSPQLLVYNAKTLADGVPSRFSGSGSGTQYSLKINSLQPEDFGSYYCQHFWSTPRTFGGGTKLEIKRTVAAPSVFIFPPSDEQLKSGTASVVCLLNNFYPREAKVQWKVDNALQSGNSQESVTEQDSKDSTYSLSSTLTLSKADYEKHKVYACEVTHQGLSSPVTKSFNRGEC
notes: Mock mAb^2, IgG1 with LALA
[1]
  EC50 (read off the curve): ~0.8 nM
[2]
  EC50 (read off the curve): ~0.5 nM
[10]
  EC50 (read off the curve): ~0.5 nM

B4: G1-AA/HelD1.3 (antibody, human IgG1, kappa, L234A L235A, V domains shown)
VH: QVQLQESGPGLVRPSQTLSLTCTVSGSTFSGYGVNWVRQPPGRGLEWIGMIWGDGNTDYNSALKSRVTMLVDTSKNQFSLRLSSVTAADTAVYYCARERDYRLDYWGQGSLVTVSS
VL: DIQMTQSPASLSASVGETVTITCRASGNIHNYLAWYQQKQGKSPQLLVYNAKTLADGVPSRFSGSGSGTQYSLKINSLQPEDFGSYYCQHFWSTPRTFGGGTKLEIKR
notes: Anti-hen egg lysozyme human IgG1 with the LALA mutation; also called G1-AA/HeID1.3; G1AA/HeID1.3 mAb (with LALA)
[6]
  binding result: no binding
